Experimental data from patent US20240076332A1.

Biological target: cell surface bound heterodimeric receptor protein comprising a tyrosine kinase FGFR1c and a beta-Klotho protein (UniProt P11362)
Test: cell-based or functional assay

UniProt P11362, sequence (P11362 22-822, chain 1 of 2): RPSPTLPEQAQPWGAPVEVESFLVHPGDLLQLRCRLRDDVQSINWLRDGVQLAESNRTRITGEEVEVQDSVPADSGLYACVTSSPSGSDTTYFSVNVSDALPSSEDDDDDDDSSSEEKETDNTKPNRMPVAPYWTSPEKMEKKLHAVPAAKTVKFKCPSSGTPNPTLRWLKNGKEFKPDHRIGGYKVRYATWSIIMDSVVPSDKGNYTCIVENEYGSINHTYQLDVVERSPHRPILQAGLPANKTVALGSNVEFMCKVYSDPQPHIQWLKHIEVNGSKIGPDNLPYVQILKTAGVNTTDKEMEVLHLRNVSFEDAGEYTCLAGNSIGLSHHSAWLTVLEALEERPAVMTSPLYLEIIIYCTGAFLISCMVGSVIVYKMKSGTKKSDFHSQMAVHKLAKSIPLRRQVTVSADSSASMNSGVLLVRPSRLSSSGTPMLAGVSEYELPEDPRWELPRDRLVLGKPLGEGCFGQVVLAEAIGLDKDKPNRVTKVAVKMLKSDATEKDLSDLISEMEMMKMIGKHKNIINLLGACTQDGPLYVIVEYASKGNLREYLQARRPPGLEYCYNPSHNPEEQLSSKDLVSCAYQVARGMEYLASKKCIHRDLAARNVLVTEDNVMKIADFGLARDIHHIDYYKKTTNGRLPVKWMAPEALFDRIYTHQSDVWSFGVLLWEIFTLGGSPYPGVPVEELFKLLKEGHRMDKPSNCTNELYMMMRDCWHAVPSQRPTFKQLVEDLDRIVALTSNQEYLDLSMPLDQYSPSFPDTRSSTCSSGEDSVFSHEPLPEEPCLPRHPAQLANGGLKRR
UniProt P11362, sequence (Q86Z14 whole entry, chain 2 of 2, further chain): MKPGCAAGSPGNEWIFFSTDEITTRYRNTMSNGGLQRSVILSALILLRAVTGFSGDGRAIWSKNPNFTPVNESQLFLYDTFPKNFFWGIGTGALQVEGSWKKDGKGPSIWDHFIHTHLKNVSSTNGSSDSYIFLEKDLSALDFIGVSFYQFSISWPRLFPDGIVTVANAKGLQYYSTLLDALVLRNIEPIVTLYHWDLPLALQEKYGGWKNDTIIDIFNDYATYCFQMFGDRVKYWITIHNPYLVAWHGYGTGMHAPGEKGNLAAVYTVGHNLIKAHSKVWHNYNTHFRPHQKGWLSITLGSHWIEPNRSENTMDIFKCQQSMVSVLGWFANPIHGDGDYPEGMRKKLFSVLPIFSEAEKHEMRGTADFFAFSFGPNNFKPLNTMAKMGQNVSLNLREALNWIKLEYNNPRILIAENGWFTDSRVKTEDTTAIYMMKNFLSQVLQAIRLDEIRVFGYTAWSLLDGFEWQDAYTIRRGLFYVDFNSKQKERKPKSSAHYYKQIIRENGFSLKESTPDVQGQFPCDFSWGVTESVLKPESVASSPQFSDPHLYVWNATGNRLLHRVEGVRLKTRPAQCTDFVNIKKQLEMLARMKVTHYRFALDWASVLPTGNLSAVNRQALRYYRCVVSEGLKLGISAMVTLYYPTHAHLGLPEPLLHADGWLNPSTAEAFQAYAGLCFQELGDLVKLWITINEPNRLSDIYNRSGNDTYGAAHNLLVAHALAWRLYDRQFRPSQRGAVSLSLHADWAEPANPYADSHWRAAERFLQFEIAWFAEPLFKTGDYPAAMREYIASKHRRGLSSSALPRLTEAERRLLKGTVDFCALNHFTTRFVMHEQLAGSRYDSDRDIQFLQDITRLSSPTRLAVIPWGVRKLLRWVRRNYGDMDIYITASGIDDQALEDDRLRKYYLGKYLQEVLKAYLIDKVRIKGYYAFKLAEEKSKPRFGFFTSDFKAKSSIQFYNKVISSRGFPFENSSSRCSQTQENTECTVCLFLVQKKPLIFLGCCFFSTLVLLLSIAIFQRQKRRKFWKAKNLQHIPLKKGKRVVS

Substance: human FGF21 (from UniProt Q9NSA1 29-209) (ligand)
- EC50 of firefly luciferase reporter-gene response (Gal4-Elk-1), HEK293 cells with FGFR1c and optimized synthetic beta-Klotho gene, treated with increasing concentrations of human FGF21: 0.003 µg/mL
- EC50 of firefly luciferase reporter-gene response, HEK293 cells with FGFR1c and native beta-Klotho gene, freeze, thaw and use format: 0.024 µg/mL
- EC50 of firefly luciferase reporter-gene response, HEK293 cells with FGFR1c and optimized synthetic beta-Klotho gene, freeze, thaw and use format: 0.007 µg/mL
- EC50 of firefly luciferase reporter-gene response, Jurkat cells transfected with the native beta-Klotho gene (Table 1): 0.172 µg/mL
- EC50 of firefly luciferase reporter-gene response, Jurkat cells with FGFR1c and native beta-Klotho gene, freeze, thaw and use format: 0.17 µg/mL
